{"source": "paper PMC8274241", "binders": {"B1": {"name": "Lsh crRNA (56-nt as named) + RNA6 (8-nt anti-tag) (mixed)", "RNA 1": "GGCCACCCCAAUAUCGAAGGGGACUAAAACUAGAUUGCUGUUCUACCAAGUAAUCCAU", "RNA 2": "GAUGGAUUACUUGGUAGAACAGCAAUCUAGUUUUAGU"}, "B2": {"name": "Lsh crRNA alone (structured_RNA)", "RNA": "GGCCACCCCAAUAUCGAAGGGGACUAAAACUAGAUUGCUGUUCUACCAAGUAAUCCAU"}, "B3": {"name": "Lsh crRNA + RNA4 (no anti-tag) (mixed)", "RNA 1": "GGCCACCCCAAUAUCGAAGGGGACUAAAACUAGAUUGCUGUUCUACCAAGUAAUCCAU", "RNA 2": "GAUGGAUUACUUGGUAGAACAGCAAUCUACAAAAUCA"}}, "test_in_all_cases": "cryo-EM", "key": {"LshCas13a [1]": {"biological_target": "T1, LshCas13a (Leptotrichia shahii, UniProt P0DOC6 1-1389)", "T1 sequence": "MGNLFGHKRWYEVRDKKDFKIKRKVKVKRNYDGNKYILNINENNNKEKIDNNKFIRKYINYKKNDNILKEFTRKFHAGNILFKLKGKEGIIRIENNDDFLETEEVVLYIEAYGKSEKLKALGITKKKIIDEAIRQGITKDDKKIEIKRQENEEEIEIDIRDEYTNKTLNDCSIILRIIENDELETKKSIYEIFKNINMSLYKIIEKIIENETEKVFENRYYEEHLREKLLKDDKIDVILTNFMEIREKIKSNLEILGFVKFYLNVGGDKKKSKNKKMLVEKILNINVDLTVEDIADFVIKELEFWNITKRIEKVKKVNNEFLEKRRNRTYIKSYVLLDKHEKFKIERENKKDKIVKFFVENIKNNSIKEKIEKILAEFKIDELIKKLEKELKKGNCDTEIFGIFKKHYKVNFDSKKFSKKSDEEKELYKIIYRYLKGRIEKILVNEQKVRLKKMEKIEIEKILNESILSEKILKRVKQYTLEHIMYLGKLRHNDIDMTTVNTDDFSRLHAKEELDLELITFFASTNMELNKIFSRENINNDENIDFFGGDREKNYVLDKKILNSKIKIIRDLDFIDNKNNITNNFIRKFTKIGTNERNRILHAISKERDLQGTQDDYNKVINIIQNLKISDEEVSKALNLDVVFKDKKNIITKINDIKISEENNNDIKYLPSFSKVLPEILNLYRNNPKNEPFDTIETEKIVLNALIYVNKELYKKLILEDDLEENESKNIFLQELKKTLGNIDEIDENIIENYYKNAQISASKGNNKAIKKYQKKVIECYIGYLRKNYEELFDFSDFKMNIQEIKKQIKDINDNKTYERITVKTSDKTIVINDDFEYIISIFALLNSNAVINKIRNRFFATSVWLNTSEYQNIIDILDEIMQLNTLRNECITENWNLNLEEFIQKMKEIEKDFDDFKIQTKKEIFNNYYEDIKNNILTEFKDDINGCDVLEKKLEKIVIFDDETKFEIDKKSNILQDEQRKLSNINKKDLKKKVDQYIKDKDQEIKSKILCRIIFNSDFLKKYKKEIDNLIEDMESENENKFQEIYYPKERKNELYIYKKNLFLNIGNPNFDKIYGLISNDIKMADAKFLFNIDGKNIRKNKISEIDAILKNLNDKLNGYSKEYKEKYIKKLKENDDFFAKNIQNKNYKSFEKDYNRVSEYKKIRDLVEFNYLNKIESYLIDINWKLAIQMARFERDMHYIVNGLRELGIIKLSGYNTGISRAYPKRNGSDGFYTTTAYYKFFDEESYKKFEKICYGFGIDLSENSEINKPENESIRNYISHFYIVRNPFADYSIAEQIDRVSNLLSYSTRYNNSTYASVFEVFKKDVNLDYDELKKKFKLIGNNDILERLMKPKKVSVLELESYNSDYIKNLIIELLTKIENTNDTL"}, "LshCas13a [2]": {"biological_target": "T1, LshCas13a", "remark": "listed apart in the source"}, "LshCas13a [3]": {"biological_target": "T1, LshCas13a", "remark": "listed apart in the source"}}, "note": "Read-outs that look alike come from different tables or passages of the source."}
{"binder": "B1", "values": [{"measurement": "binding result", "setting": "LshCas13a [1]", "value": "binds"}]}
{"binder": "B2", "values": [{"measurement": "binding result", "setting": "LshCas13a [2]", "value": "binds"}]}
{"binder": "B3", "values": [{"measurement": "binding result", "setting": "LshCas13a [3]", "value": "binds"}]}
